Patent US12723255B2, “Herbicide tolerance genes and methods of use thereof” (priority 2014, dated 2026)
Read-outs that look alike come from different tables or passages of the source.

Experiments:
[1] = kinetic analysis, non-endpoint assay at 23° C.; assay type: biochemical
Method in brief: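 Purified C-terminal 6-His-tagged recombinant enzymes expressed in bacteria; quizalofop-P or 2,4-D as substrate. Vmax reported as specific activity (umol herbicide product mg enzyme-1 min-1) and Km as mM herbicide substrate, with standard error.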

[2] = assay type: physicochemical; settings: for T1/2, temperature where 50% of the protein was unfolded, Buffer: pH 7.5
Method in brief: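 Thermal shift assay: purified enzyme in 30 mM Tris pH7.5, 150 mM NaCl, with or without 50 uM Fe2+ and 1.0 mM aKG. Unfolding followed by SYPRO orange fluorescence from 10° C. to 95° C. in 0.5° C. steps; melting temperature (T1/2) taken from the curve.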

[3] = system: transgenic maize plants; assay: trait efficacy field trials with homozygous inbred plants, CTP evaluation; assay type: in vivo; settings: crop injury percentage
Excerpt: To evaluate different chloroplast targeting peptides (CTP), plant transformation vectors were constructed, each comprising a recombinant DNA molecule optimized for monocot expression and encoding MON-HTI (SEQ ID NO: 16), MON-HT2 (SEQ ID NO:20), and MON-HT8 (SEQ ID NO:39), MON-HT9 (SEQ ID NO:42), or MON-HT10 (SEQ ID NO:45). The vectors were created using the same combination of promoter, leader, intron, and 3′-UTR, but with one of three separate CTPs (A, B, or C) or without a CTP operably linked to the protein-coding sequence. The DNA constructs were used to transform immature maize (LH244) embryos using Agrobacterium tumifaciens and standard methods known in the art. Regenerated RO transgenic plantlets were grown in the green house. The R0 plants were selfed to generate R1 homozygous seed. The R0 plants were also used as the male to cross with inbred plants containing maize event MON89034 to generate segregating F1 hybrid seed for trait efficacy field trials.
Separate trait efficacy field trials for quizalofop-P and 2,4-D were conducted at two locations each with the homozygous inbred transgenic plants (R2 or R4 generation). In these field trials, one of two herbicide treatments was used: (1) quizalofop-P (Assure II) at 0.16 lb ai/acre (2×) plus 0.25% v/v non-ionic surfactant (NIS) applied at V4 growth stage followed by the same at V8 growth stage; or (2) 2,4-D amine at 2 lb ae/acre (2×) plus 0.25% v/v non-ionic surfactant (NIS) applied to V4 followed by V8. Injury ratings (crop injury percentage at V4 (CIPV4) or V8 (CIPV8)) were taken 10 to 14 days after the V4 and V8 applications. Error was calculated using LSD (0.05).

[4] = 23° C., purified His-tagged protein, standard error in parenthetical
[5] = 23° C., purified His-tagged protein, standard error in parenthetical, read-out: Km Quizalofop
[6] = standard error in parenthetical, NDB = activity not robust enough for kinetic characterization
[7] = CTP A, 0.16 lb ai/acre at V4, V8, LSD (0.05) = 1.45
[8] = CTP A, 0.16 lb ai/acre at V4, V8, LSD (0.05) = 2.2
[9] = CTP A, 2 lb ae/acre at V4, V8, LSD (0.05) = 0.95
[10] = CTP A, 2 lb ae/acre at V4, V8, LSD (0.05) = 1.6
[11] = standard error in parenthetical, NDB = activity not robust enough for kinetic characterization, read-out: Km 2,4-D
[12] = CTP B, 0.16 lb ai/acre at V4, V8
[13] = CTP C, 0.16 lb ai/acre at V4, V8
[14] = no CTP, 0.16 lb ai/acre at V4, V8

| Molecule | Vmax Quizalofop [1, 4] | Km [1, 5] [µM] | Km 2,4-D [1, 6] | Vmax 2,4-D [1, 6] | T1/2, temperature where 50% of the protein was unfolded, Buffer plus Fe2+ and aKG [2] [°C] | T1/2, temperature where 50% of the protein was unfolded, Buffer [2] [°C] | 2X Quizalofop-P CIPV4 [3, 7] | 2X Quizalofop-P CIPV8 [3, 8] | 2X 2,4-D CIPV4 [3, 9] | 2X 2,4-D CIPV8 [3, 10] | Km [1, 11] [µM] | 2X Quizalofop-P CIPV4 [3, 12] | 2X Quizalofop-P CIPV8 [3, 12] | 2X 2,4-D CIPV4 ([3]; CTP B, 2 lb ae/acre at V4, V8) | 2X 2,4-D CIPV8 ([3]; CTP B, 2 lb ae/acre at V4, V8) | 2X Quizalofop-P CIPV4 [3, 13] | 2X Quizalofop-P CIPV8 [3, 13] | 2X 2,4-D CIPV4 ([3]; CTP C, 2 lb ae/acre at V4, V8) | 2X 2,4-D CIPV8 ([3]; CTP C, 2 lb ae/acre at V4, V8) | 2X Quizalofop-P CIPV4 [3, 14] | further results |
| --- | --- | --- | --- | --- | --- | --- | --- | --- | --- | --- | --- | --- | --- | --- | --- | --- | --- | --- | --- | --- | --- |
| MON-HT9: engineered oxygenase protein, amino acid sequence SEQ ID NO:40 (protein) MHAALTPLTNKYRFIDVQPLTGVLGAEITGVDLREPLDDSTWNEILDAFHTYQVIYFPAQQITNEQHISFSRRFGPVDPVPLLKSIEGYPEVQMIRREANESGRILGDDWHTDSTFLDAPPAAVVMRAIEVPEYGGDTGFLSMYSAWDTLSDTMKATIEGLNVVHSATRVFGSLYQAQNWRFSNTSVKVMDVDAGDRETVHPLVVSHPVTGRRALYCNQVYCQRIEGMTDAESKCLLQFLYEHATKFDFTCRVRWKKDQVLVWDNLCTMHRAVPDYAGKFRYLTRTTVAGDRPAR | 0.53 (−0.02) umol herbicide product mg enzyme-1 min-1 | 100 | NDB | NDB | 60 | 61 | 0 | 0 | 3.75 | 1.25 |  |  |  |  |  |  |  |  |  |  |  |
| MON-HT10: engineered oxygenase protein, amino acid sequence SEQ ID NO:43 (protein) MHAALTPLTNKYRFIDVQPLCGVLGAEITGVDLREPLDDSTWNEILDAFHTYQVIYFPGQAITNEQHIAFSRRFGPVDPVPLLKSIEGYPEVQMIRREANESGRILGDDWHTDSTFLDAPPAAVVMRAIEVPEYGGDTGFLSMYSAWDTLSDTMKATIEGLNVVHSATRVFGSLYQAQNWRFSNTSVKVMDVDAGDRETVHPLVVSHPVTGRRALYCNQVYCQRIEGMTDAESKCLLQFLYEHATKFDFTCRVRWKKDQVLVWDNLCTMHLAVPDYDGKFRYLTRTTVAGDKPSR | 0.78 (−0.05) umol herbicide product mg enzyme-1 min-1 | 130 | NDB | NDB | 44 | 44 | 0 | 0 | 0 | 1.25 |  |  |  |  |  |  |  |  |  |  |  |
| MON-HT1: engineered oxygenase protein, amino acid sequence SEQ ID NO:14 (protein) MHAALTPLTNKYRFIDVQPLTGVLGAEITGVDLREPLDDSTWNEILDAFHTYQVIYFPGQAITNEQHIAFSRRFGPVDPVPILKSIEGYPEVQMIRREANESSRFIGDDWHTDSTFLDAPPAAVVMRAIEVPEYGGDTGFLSMYSAWETLSPTMQATIEGLNVVHSATKVFGSLYQATNWRFSNTSVKVMDVDAGDRETVHPLVVTHPVTGRRALYCNQVYCQKIQGMTDAESKSLLQFLYEHATKFDFTCRVRWKKDQVLVWDNLCTMHRAVPDYAGKFRYLTRTTVAGDKPSR | 0.76 (−0.04) umol herbicide product mg enzyme-1 min-1 | 170 |  | 0.95 (−0.03) umol herbicide product mg enzyme-1 min-1 | 59 | 56 | 0 | 2.125 | 0 | 2.5 | 30 | 0 | 1.75 | 0 | 1.25 | 0 | 1.75 | 1.25 | 1.25 | 0 | Vmax for 2,4-D higher than that of the wild-type enzyme [1]: 9.5 fold; Vmax for quizalofop-P relative to the wild-type enzyme ([1]; 23° C.): about half; Vmax 2,4-D ([1]; Table 10 series, unit as defined): 1.17 (0.01) umol herbicide product mg enzyme-1 min-1; Km ([1]; Table 10 series, unit as defined, read-out: Km 2,4-D): 30 µM; Vmax Quizalofop ([1]; Table 10 series, 23° C., unit as defined): 1.62 (0.05) umol herbicide product mg enzyme-1 min-1; Km ([1]; Table 10 series, 23° C., unit as defined, read-out: Km Quizalofop): 120 µM; Melting temp, Buffer ([2]; Table 11 series): 58 °C; Melting temp, Buffer plus Fe2+ and aKG ([2]; Table 11 series): 62 °C; 2X Quizalofop-P CIPV8 [3, 14]: 1.25; 2X 2,4-D CIPV4 ([3]; no CTP, 2 lb ae/acre at V4, V8): 0; 2X 2,4-D CIPV8 ([3]; no CTP, 2 lb ae/acre at V4, V8): 1.25 |
| MON-HT2: engineered oxygenase protein, amino acid sequence SEQ ID NO:18 (protein) MHAALTPLTNKYRFIDVQPLTGVLGAEITGVDLREPLDDSTWNEILDAFHTYQVIYFPGQAITNEQHIAFSRRFGPVDPVPLLKSIEGYPEVQMIRREANESSRVIGDDWHSDSTFLDAPPAAVVMRAIEVPEYGGDTGFLSMYSAWETLSPTMQATIEGLNVVHSATKVFGSLYQATNWRFSNTSVKVMDVDAGDRETVHPLVVTHPVTGRRALYCNQVYCQKIQGMTDAESKSLLQFLYEHATKFDFTCRVRWKKDQVLVWDNLCTMHRAAPDYAGKFRYLTRTTVAGDKPSR | 1.41 (−0.11) umol herbicide product mg enzyme-1 min-1 | 410 |  | 0.23 (−0.01) umol herbicide product mg enzyme-1 min-1 | 58 | 55 | 0 | 1.875 | 0.875 | 1.25 | 40 | 0 | 0 | 0 | 2.5 | 0 | 2 | 0 | 1.25 | 1.25 | 2X Quizalofop-P CIPV8 [3, 14]: 3.5; 2X 2,4-D CIPV4 ([3]; no CTP, 2 lb ae/acre at V4, V8): 0; 2X 2,4-D CIPV8 ([3]; no CTP, 2 lb ae/acre at V4, V8): 2.5 |
| MON-HT8: engineered oxygenase protein, amino acid sequence SEQ ID NO:37 (protein) MHAALTPLTNKYRFIDVQPLTGVLGAEITGVDLREPLDDSTWNEILDAFHTYQVIYFPGQAITNEQHIAFSRRFGPVDPVPILKSIEGYPEVQMIRREANESGRVIGDDWHTDSTFLDAPPAAVVMRAIEVPEYGGDTGFLSMYSAWETLSPTMQATIEGLNVVHSATKVFGSLYQATNWRFSNTSVKVMDVDAGDRETVHPLVVTHPVTGRRALYCNQVYCQKIQGMTDAESKSLLQFLYEHATKFDFTCRVRWKKDQVLVWDNLCTMHRSVPDYGNAFRYLTRTTVAGDKPSR | 0.46 (−0.02) umol herbicide product mg enzyme-1 min-1 | 110 |  | 0.11 (−0.01) umol herbicide product mg enzyme-1 min-1 | 61 | 61 | 0 | 1.25 | 1.75 | 1.25 | 140 | 0.75 | 2.5 | 0 | 1.25 | 0 | 1.25 | 1.25 | 0 |  |  |
